Data on 1 molecule can be found in patent publication US20230087785A1, “Leucine-Rich Repeat Kinase 2 Allosteric Modulators” (VIB VZW, priority 2020, published 2023).

Assay [1] has as its target T1, LRRK2 COR-B construct (C-terminal part of the COR domain), His6-MBP tagged (human, UniProt Q5S007 1672-1840).
T1 construct: also called (MBP-)COR-B; not shown: N-terminal His6-MBP-tag of pDEST-566
The assay is described as follows: ELISA, antigen coated on the plate, purified Nb detected via its EPEA tag. A digest of the protocol:
(§1)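 The RocCOR, Roc, COR-B and kinase-WD40 constructs were coated side by side on one ELISA plate. Binding of each purified nanobody to every coated construct was then detected.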
A general note: In an ELISA, binding on a coated surface is turned into a signal by an enzyme label.

Assay [2] addresses T2, LRRK2 Roc domain construct (human, UniProt Q5S007 1329-1520).
T2 construct: not shown: N-terminal His6-tag of pET-28a
T2 sequence: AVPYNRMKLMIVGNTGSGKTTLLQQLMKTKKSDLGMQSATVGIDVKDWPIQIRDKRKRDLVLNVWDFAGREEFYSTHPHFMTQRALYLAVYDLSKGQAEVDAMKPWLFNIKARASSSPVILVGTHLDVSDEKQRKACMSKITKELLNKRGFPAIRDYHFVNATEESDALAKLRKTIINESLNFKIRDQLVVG
Described as above. A digest of the protocol:
as §1

In assay [3] the target is T3, LRRK2 RocCOR domain construct (human, UniProt Q5S007 1334-1840).
T3 construct: A second construct (residues 1293-1840, N-terminal His6-MBP) was used in certain screening experiments; not shown: N-terminal Twin-Strep-tag; C-terminal His10-tag
T3 sequence: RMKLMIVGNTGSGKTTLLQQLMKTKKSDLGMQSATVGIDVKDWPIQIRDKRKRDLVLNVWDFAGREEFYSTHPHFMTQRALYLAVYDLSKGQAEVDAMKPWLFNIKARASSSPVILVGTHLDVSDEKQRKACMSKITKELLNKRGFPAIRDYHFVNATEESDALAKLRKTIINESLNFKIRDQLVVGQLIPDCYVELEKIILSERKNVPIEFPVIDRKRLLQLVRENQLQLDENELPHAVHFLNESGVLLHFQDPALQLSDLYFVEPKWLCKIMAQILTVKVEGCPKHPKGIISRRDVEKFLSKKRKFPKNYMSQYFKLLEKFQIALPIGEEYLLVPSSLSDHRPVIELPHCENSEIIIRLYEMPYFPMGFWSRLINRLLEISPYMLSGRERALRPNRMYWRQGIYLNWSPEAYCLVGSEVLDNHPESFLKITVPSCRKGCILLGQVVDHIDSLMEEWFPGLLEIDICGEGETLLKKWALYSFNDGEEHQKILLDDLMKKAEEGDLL
The description is as above. The gist of the method:
as §1

Assay [4] has as its target T4, Full-length human Leucine-rich repeat kinase 2 (LRRK2), N-terminal Strep/Flag (SF) tagged (human, UniProt Q5S007 1-2527).
T4 construct: Purified from HEK293T cells in presence of GDP or GTPγS; also called FL LRRK2; FL-LRRK2
The assay is described as follows: BLI; Nb on LRRK2 trapped on streptavidin sensor via biotinylated Nb40; steady-state fit; BLI; LRRK2 trapped on the sensor via biotinylated Nb40. As to the method:
To determine the binding affinity (dissociation constant KD) of the ten Nbs for LRRK2, two methods were used in parallel: microscale thermophoresis (MST) and bio-layer interferometry (BLI). For the MST experiment, we site-specifically labeled the ten Nbs with a m-TAM RA fluorophore at its C-terminus, using sortase-mediated coupling, and then titrated increasing amounts of full-length LRRK2 to these Nbs (FIGS. 13A-13E).
Biolayer interferometry (BLI) measurements were performed using an Octet Red96 (Forte Bio, Inc.) system in a buffer containing 50 mM HEPES pH 8.0, 150 mM NaCl, 10 mM MgCl₂, 5% glycerol, 0.1% BSA, 0.05% Tween, at 25° C. and with shaking speed 1000 rpm. […] The biotinylated Nbs were first loaded on pre-equilibrated SA biosensors at a concentration of 5 μg/mL. This Nb-loaded sensor was then used to trap FL-LRRK2 from a 50 nM LRRK2 solution. […] All experiments were performed in triplicate.
Background: BLI is a label-free optical method that tracks binding on a fibre tip over time.

In assay [5] the target is T4, Full-length human Leucine-rich repeat …. The assay is described as follows: kinase kinetics (PhosphoSens, varied ATP), global fit to mixed inhibition; ATP-bound LRRK2; enzyme kinetics, mixed inhibition fit; ATP-bound LRRK2. The protocol: (§2) Full Michaelis-Menten curves (relative velocity versus [ATP]) in presence of different Nb concentrations were collected at 30° C. in a buffer consisting of 50 mM HEPES pH 7.5, 0.1% Brij-35, 50 mM NaCl, 10 mM MgCl₂ and […], using a fixed concentration of AQT0615 (10 μM) and varying concentrations of ATP. The LRRK2 concentration was chosen such that initial rates (linear fluorescence versus time curves) were obtained, and LRRK2, ATP and the Nbs were preincubated at 4° C. for 30 min prior to starting the reaction by adding the peptide substrate. The Michaelis-Menten curves for the different Nb concentrations were globally fit on a mixed-inhibition model using GraphPad Prism, according to the equation: […]

Assay [6] shares this target. The assay is described as follows: kinase kinetics (PhosphoSens, varied ATP), global fit to mixed inhibition; affinity for apo-LRRK2; enzyme kinetics, mixed inhibition fit; apo (non-ATP-bound) LRRK2. As to the method: as §2
Assay [7] shares this target. The assay is described as follows: cell-based or functional assay.

B1: Nb23 (CA13612) (VHH)
VHH: QVQLVESGGGLVQAGGSLRLSCAASGRTFSRYTMGWFRQAPGKDREFVARITTSGAVTTYADSAKGRFTISRDNAKNTVYLQMNTLKPEDTAVYYCAAGQGQLSSQSRFVDYWGQGTQVTVSS
Regarding B1, the binding result in assay [1], in assay [2] and in assay [3] was “no binding (tested: not given)” each time. Besides, the Kd (usually the concentration at which binding is half-saturated) in assay [4] turned out to be 0.065 µM. Moreover, the Ki (commonly the equilibrium dissociation constant of an inhibitor or competing ligand from its target) in assay [5] amounted to 66 µM; in assay [6], 9 µM. Further, the “IC50 of in vitro LRRK2 kinase activity (AQT0615 peptide, PhosphoSens, 1 mM ATP)” value in assay [7] was approximately 65 µM.
